Assay results: patent US20060198894A1, “Stabilized, solid-state polypeptide particles” (priority 2002, published 2006)
Where no end group is shown, it is not given here.

Tests used:
Format in all cases: physicochemical
[1] = Aggregation / dimer formation in solid-state PACAP particles stored at 60° C. for two months, SEC; conditions: for dimer formation: two months of storage at 60° C.
Description: (§1) The effect of pH on the stability of PACAP molecules over time was evaluated. In order to make such an evaluation, PACAP raw material was first dissolved in H2O in three different solutions, with the first solution having a pH of 2, the second solution having a pH of 4, and the third solution having a pH of 6. The pH of each solution was adjusted to the desired value using diluted HCl. Each of the three solutions was placed in lyophilization vials, and solid-state PACAP particles were produced from each of the three solutions through the lyophilization process already described herein. Particles from each of the three solutions were then stored for two months at 60° C., and the stability of the PACAP included in the solid-state particles was thereafter evaluated using RP-HPLC and SEC.
(§2) Solid-state PACAP particles were prepared from each of the eight solutions through lyophilization, as has already been described, and solid-state PACAP particles produced from each of the eight solutions were then stored at 60° C. for two months. After exposing the various solid-state PACAP particles to a temperature of 60° C. over two months, the stability of the PACAP included in various particles was evaluated using RP HPLC and SEC processes.
PACAP particles containing histidine buffer (Sigma) and PACAP particles containing histidine buffer in combination with calcium chloride (CaCl2, J T Baker), sucrose and sodium dodecyl sulfate (SDS, Pierce) were prepared and the stabilization of PACAP provided by such particles was evaluated. To prepare the PACAP particles evaluated, six different aqueous solutions were prepared. Each solution included a desired amount of PACAP dissolved therein, and the pH of each of the six solutions prepared was adjusted to 6 by the addition of diluted HCl. The first aqueous solution was prepared without additives (histidine buffer, CaCl2, sucrose, or SDS). The second aqueous solution was prepared with a 10 mM concentration of histidine buffer. The third aqueous solution was formulated with a 10 mM concentration of histidine buffer as well as a 10 mM concentration of CaCl2. The fourth aqueous solution was formulated with a 10 mM concentration of histidine buffer and included sucrose at a 0.5/1 weight ratio (sucrose/PACAP) relative to PACAP. The fifth aqueous solution was prepared with a 10 mM concentration of histidine buffer, a 10 mM concentration of CaCl2, and an amount of sucrose providing a 0.5/1 weight ratio (sucrose/PACAP) relative to PACAP. The sixth aqueous solution was formulated with a 10 mM concentration of histidine buffer and 0.02 wt % SDS. Solid-state PACAP particles were then produced from each of the six solutions using the lyophilization process already described herein. The PACAP particles produced from each solution were then stored at 60° C. for two months, and the stability of the PACAP contained within the various different particles was evaluated using RP-HPLC and SEC processes after such storage. […] In addition, sucrose, CaCl2 and SDS further stabilized the peptide, providing roughly 14 fold to 20 fold decreases in aggregate formation.
To evaluate the stabilizing effect of CaCl2 in PACAP particles prepared at acidic and near neutral pH, four different types of particles were formulated, stored at 60° C. for two months, and then analyzed for PACAP degradation. The four different particle formulations were prepared from four different aqueous solutions. Each of the four solutions included a desired amount of PACAP dissolved therein and the pH of each solution was adjusted to the desired level using diluted HCl. The first aqueous solution was formulated without additives (histidine or CaCl2), and the pH of the first solution was adjusted to 2. The second aqueous solution was formulated with a 10 mM concentration of CaCl2, and the pH of the second solution was adjusted to 2. […]

[2] = Aggregation of lyophilized PACAP and PACAP suspensions with excipients stored at 2-8, 40 and 60° C. up to 3 months, SEC
Description: (§3) The preliminary findings from the processing study led to the evaluation of the stabilization effect of sugar (sucrose) and nonionic surfactant (Tween 80) on PACAP lyophiles and suspensions. In order to carry out the evaluation, samples were prepared with PACAP in 10 mM NH4OAc (pH6.4) at 3 levels of Tween 80 (0, 0.05, 0.2 wt %) and sucrose (0, 0.5/1, 1/1, w/w). A solution of PACAP in 10 mM of histidine (pH 6.4) and sodium succinate (pH 5.6) was also prepared. Each of the PACAP solutions were lyophilized to obtain reconstituted, solid-state PACAP particles, and individual vials were provided 3.3 mg samples of the material reconstituted from each of the solutions, with the samples containing (1) no additive, (2) 0.2 wt % Tween 80, (3) 0.2 wt % Tween 80+0.5:1, w/w sucrose, and (4) 1:1, w/w sucrose. The various 3.3 mg samples were manually mixed with LL/GML/PVP and BA/PVP to provide suspension formulations having about 3% PACAP content, and the suspension formulations were subjected to 4 hours of incubation at 65° C. After the initial incubation period, the various suspension formulations were stored as described below and evaluated by RP-HPLC and SEC.
(§4) Solid-state PACAP particles were prepared via a lyophilization process (FTS Duro stop) from three different polypeptide solutions prepared in NH4OAc buffer at pH6. Each of the three different solutions contained a different amount of sucrose, with the first containing no sucrose, the second containing a weight ratio of sucrose to PACAP of 0.5/1, and the third containing a weight ratio of sucrose to PACAP 1/1. Solid-state PACAP particles prepared from each of the three solutions were stored at control temperatures ranging from 2° C. to 8° C., a temperature approximating physiologic temperature (40° C.), and a temperature exceeding physiologic temperature (60° C.). The stability of the PACAP contained within each group of solid-state PACAP particles was assessed at 24 days and 3 months. To assess PACAP stability within each group of particles, the particles were reconstituted in water and analyzed by reversed-phase RP-HPLC (acetonitrile gradient elution with mobile phase containing 0.1% trifluoroacetic acid, and a UV detection at 214 nm) and size exclusion HPLC (SEC, isocratic elution, 30% acetonitrile mixed with 70% of aqueous solution containing 0.1% trifluoroacetic acid and 200 mM of sodium chloride, and a UV detection at 220 nm).

[3] = Total degradation of lyophilized PACAP with excipients stored at 2-8, 40 and 60° C. up to 3 months, RP-HPLC
Description: as §3, §4

[4] = Stability of PACAP suspended in suspension vehicles at elevated temperature, RP-HPLC and SEC
From the text: Due to the nature of the suspension vehicles used in implantable drug delivery systems, mixing of the suspension formulation bulk and subsequent loading of the suspension formulation into the implantable systems are often conducted at elevated temperatures. To evaluate the stability of PACAP analog (or simply “PACAP”) suspended in various suspension vehicles at elevated temperatures, unprotected, lyophilized PACAP was suspended in four different suspension vehicles (LL/GML/PVP, BA/PVP, EHL/PVP, and PEG/PVP). To suspend the PACAP into the suspension vehicles 3.3 mg PACAP acetate was manually mixed into each of the different suspensions to achieve a PACAP content of approximately 3%. The stability of the PACAP suspension formulations was then evaluated after incubation at 65° C. for four hours.
The PACAP suspensions were then further incubated at 37° C. and 65° C. an additional 17 days. […] (Table 3). […] In addition, other chemical degradation contributed to the loss of lyophilized PACAP.

[5] = Stability of solid-state PACAP particles stored at 60° C. for two months, RP-HPLC (recovery / total degradation)
Description: as §1, §2
PACAP particles containing histidine buffer (Sigma) and PACAP particles containing histidine buffer in combination with calcium chloride (CaCl2, J T Baker), sucrose and sodium dodecyl sulfate (SDS, Pierce) were prepared and the stabilization of PACAP provided by such particles was evaluated. To prepare the PACAP particles evaluated, six different aqueous solutions were prepared. Each solution included a desired amount of PACAP dissolved therein, and the pH of each of the six solutions prepared was adjusted to 6 by the addition of diluted HCl. The first aqueous solution was prepared without additives (histidine buffer, CaCl2, sucrose, or SDS). The second aqueous solution was prepared with a 10 mM concentration of histidine buffer. The third aqueous solution was formulated with a 10 mM concentration of histidine buffer as well as a 10 mM concentration of CaCl2. The fourth aqueous solution was formulated with a 10 mM concentration of histidine buffer and included sucrose at a 0.5/1 weight ratio (sucrose/PACAP) relative to PACAP. […] The PACAP particles produced from each solution were then stored at 60° C. for two months, and the stability of the PACAP contained within the various different particles was evaluated using RP-HPLC and SEC processes after such storage. […]
To evaluate the stabilizing effect of CaCl2 in PACAP particles prepared at acidic and near neutral pH, four different types of particles were formulated, stored at 60° C. for two months, and then analyzed for PACAP degradation. […]

[6] = Example 2 lyophilized formulations, except samples containing 1:1 w/w sucrose
[7] = lyophilized PACAP, ammonium acetate app. pH 6.4, 40° C. for 3 months (FIG. 1)

PACAP analog: synthetic PACAP-R3 agonist analog manufactured by Bayer; 31 amino acid sequence HSDAVFTDNYTRLRKQVAAKKYLQSIKNKRY (SEQ. I.D. NO. 1) (HSDAVFTDNYTRLRKQVAAKKYLQSIKNKRY; ends and bridges not checked)
dimer formation ([1]; particles at acidic pH with Ca2+/PACAP analog 4/1 molar ratio): 0.8%
dimer formation ([1]; particles at acidic pH with trehalose/PACAP analog 0.55/1 w/w): 0.7%
decrease in aggregate formation ([1]; particles from pH 6 solution with 10 mM histidine buffer vs no additives, 60° C. for two months): roughly 6 fold
dimer formation ([1]; particles lyophilized from stabilizing solution of apparent pH 2 (diluted HCl), no excipient): 1.1%
improvement in preventing aggregate formation ([1]; particles prepared at pH 6 with sucrose (7.3 molar equivalent), 60° C. for two months): ~6 fold
improvement in preventing aggregate formation ([1]; particles prepared at pH 6 with trehalose (7.3 molar equivalent), 60° C. for two months): ~4 fold
rate of aggregation at 60° C. relative to 40° C. [2, 6]: approximately 10 times
rate of aggregation (SEC) at 60° C. relative to 40° C. ([2]; Example 3, NH4OAc buffer pH6, sucrose 0, 0.5/1, 1/1, all formulations tested): 10 times
effect of sucrose on aggregate formation in suspensions ([2]; PACAP suspensions in BA/PVP and LL/GML/PVP, 40° C.): suppressed aggregate formation
effect of Tween 80 on aggregation [2, 7]: no added effect
effect of sucrose on aggregation [2, 7]: suppressed PACAP aggregation
effect of histidine and sodium succinate on aggregate formation ([2]; lyophilized formulations, 40° and 60° C. over 3 months): better stabilizers than ammonium acetate
rate of aggregation or dimerization at 60° C. relative to 40° C. ([2]; solid-state PACAP particles): ten times higher
rate of total degradation at 60° C. relative to 40° C. [3, 6]: about 5 times
rate of total degradation (RP HPLC) at 60° C. relative to 40° C. ([3]; Example 3, NH4OAc buffer pH6, except particles with PACAP to sucrose weight ratio of 1/1): about 5 times
total rate of degradation at 60° C. relative to 40° C. ([3]; PACAP analog contained within particles): approximately five times higher
time stable ([3]; lyophilized PACAP without a stabilizer, at 4° C.): at least 3 months
estimated total degradation ([3]; lyophilized PACAP, apparent pH 6.4 in ammonium acetate, equal amount of sucrose (w/w), in 6 months at 40° C.): 8.4%
stability of PACAP suspensions ([4]; further incubated at 37° C. an additional 17 days): marginal stability loss
stability of PACAP suspensions ([4]; further incubated at 65° C. an additional 17 days): relatively more aggressive degradation
stability of PACAP suspension formulations ([4]; unprotected lyophilized PACAP, about 3%, in LL/GML/PVP, BA/PVP, EHL/PVP, PEG/PVP, 65° C. for four hours): stable
effect of acidic pH on stability ([5]; particles lyophilized at pH 2, 4, 6 (HCl), two months at 60° C. (FIG. 9)): greatly improved stability
effect of trehalose and methyl MP on stability ([5]; particles prepared at pH2, relative to pH2 without stabilizing sugar, 60° C. for two months): additive stability
effect of sucrose on stability ([5]; particles prepared at pH2 with sucrose, 60° C. for two months): significant destabilizing effect
effect of CaCl2 on stability ([5]; particles with 10 mM CaCl2 at both pH 2 and 6, 60° C. for two months): further improved the stability
